US20250313864, “TYPE V CAS PROTEINS AND APPLICATIONS THEREOF” (Alia Therapeutics Srl, published 2025)

Legend:
Assay in all cases: cell_activity; PAM TTTA; U2OS; with at least one of g1/g2, which one not given
Conditions in all cases: tags: V5 tag, C-terminal NLS; hairpin
ZXPB Type V-A Cas = target: T1, ZXPB Type V-A Cas (unidentified)
T1 chain: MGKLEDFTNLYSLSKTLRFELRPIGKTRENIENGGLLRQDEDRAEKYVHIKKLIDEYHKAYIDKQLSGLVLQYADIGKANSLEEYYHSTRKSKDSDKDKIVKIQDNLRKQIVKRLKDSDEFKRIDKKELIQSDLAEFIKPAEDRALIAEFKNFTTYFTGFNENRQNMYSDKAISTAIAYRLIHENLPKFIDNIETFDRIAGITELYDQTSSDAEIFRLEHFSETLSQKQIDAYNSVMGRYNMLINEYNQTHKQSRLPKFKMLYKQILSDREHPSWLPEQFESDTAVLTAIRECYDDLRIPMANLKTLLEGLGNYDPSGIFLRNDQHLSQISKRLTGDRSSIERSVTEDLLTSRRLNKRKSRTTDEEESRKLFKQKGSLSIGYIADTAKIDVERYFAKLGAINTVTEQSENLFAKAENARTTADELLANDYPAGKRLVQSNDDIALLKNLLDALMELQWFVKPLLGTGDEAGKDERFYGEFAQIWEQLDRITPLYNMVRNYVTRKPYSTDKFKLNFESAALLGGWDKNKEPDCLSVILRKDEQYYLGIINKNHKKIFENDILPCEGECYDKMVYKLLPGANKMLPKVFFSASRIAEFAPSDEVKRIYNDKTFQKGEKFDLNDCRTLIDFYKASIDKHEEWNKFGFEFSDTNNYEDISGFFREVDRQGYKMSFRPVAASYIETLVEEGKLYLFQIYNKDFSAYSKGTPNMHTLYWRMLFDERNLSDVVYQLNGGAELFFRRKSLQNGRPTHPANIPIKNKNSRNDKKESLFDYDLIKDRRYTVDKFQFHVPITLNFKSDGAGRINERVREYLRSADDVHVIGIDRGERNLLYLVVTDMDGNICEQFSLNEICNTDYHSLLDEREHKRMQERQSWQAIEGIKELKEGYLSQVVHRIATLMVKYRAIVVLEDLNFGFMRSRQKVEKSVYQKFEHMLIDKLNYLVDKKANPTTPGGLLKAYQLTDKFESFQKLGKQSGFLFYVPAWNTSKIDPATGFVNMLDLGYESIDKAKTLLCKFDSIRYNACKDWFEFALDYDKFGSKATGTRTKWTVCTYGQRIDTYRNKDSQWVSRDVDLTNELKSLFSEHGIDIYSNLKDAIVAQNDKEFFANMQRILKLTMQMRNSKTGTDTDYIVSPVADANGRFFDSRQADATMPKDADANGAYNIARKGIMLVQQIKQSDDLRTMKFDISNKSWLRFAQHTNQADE

ZJHK Type V-A Cas = target: T2, ZJHK Type V-A Cas (unidentified)
T2 chain: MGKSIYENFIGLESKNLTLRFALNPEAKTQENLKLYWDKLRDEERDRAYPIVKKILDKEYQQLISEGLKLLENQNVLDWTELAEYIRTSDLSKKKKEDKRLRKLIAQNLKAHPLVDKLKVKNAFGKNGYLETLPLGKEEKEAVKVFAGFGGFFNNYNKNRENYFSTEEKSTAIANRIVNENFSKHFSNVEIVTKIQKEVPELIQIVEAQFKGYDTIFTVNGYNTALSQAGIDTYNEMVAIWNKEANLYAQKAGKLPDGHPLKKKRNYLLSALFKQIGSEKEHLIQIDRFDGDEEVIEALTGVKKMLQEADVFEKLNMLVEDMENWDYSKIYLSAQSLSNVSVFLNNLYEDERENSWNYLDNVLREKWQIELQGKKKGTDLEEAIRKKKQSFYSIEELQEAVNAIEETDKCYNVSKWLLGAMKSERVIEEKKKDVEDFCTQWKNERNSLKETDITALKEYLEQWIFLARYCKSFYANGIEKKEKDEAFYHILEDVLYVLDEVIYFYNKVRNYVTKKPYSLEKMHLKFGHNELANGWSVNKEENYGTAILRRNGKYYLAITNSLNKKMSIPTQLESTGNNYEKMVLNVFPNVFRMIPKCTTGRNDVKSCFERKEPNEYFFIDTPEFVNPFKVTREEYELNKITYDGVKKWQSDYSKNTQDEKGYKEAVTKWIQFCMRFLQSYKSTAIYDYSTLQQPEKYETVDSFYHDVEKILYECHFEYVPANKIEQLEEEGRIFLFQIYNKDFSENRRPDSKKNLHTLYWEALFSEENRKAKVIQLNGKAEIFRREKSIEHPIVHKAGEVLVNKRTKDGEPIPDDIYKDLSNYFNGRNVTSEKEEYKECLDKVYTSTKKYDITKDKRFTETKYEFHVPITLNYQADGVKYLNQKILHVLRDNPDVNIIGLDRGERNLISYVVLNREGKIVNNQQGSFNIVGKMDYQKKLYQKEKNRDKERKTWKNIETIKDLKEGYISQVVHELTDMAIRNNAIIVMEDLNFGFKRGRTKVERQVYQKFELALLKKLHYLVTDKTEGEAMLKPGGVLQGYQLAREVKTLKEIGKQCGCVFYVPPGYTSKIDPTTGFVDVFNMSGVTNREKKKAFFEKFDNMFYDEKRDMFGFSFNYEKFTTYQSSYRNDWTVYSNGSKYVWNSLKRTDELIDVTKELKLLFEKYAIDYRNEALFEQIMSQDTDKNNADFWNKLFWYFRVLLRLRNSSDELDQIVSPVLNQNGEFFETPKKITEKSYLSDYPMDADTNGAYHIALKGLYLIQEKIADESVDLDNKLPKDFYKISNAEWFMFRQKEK

ZZGY Type V-A Cas = target: T3, ZZGY Type V-A Cas (unidentified)
T3 chain: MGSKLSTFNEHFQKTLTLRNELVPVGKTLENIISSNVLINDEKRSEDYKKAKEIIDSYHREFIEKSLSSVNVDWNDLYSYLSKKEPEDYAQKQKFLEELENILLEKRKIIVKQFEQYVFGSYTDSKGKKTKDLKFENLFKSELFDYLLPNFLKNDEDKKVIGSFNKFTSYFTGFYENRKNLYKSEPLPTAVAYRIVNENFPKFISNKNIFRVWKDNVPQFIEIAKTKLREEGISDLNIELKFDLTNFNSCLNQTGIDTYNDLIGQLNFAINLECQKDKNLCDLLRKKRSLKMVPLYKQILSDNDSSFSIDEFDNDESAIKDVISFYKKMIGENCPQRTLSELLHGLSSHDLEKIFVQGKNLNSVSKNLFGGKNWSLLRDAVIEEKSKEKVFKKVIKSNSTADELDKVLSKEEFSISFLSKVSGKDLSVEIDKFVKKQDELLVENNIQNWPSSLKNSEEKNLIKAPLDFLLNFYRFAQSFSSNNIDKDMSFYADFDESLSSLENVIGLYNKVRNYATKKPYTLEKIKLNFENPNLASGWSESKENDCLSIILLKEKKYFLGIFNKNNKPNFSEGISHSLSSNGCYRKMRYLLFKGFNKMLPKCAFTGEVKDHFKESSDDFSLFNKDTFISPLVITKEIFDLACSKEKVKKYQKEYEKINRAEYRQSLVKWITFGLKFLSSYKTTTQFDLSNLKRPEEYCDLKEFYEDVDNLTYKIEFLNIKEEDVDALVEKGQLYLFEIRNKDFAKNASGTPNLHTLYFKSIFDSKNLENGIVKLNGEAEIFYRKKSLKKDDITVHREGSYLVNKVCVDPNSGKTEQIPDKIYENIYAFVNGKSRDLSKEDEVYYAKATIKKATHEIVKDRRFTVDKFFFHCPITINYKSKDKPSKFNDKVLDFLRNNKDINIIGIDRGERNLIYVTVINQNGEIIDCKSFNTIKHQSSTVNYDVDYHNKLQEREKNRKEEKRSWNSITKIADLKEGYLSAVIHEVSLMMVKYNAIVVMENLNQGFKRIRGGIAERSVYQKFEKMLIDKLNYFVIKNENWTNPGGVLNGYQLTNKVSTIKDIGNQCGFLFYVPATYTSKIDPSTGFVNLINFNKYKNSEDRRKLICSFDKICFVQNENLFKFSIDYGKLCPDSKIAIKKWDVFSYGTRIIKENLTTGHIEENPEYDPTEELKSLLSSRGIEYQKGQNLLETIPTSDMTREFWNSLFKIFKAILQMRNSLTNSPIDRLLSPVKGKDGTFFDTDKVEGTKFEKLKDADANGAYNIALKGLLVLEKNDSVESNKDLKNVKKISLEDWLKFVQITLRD

B1: ZXPB crRNA EGFP-g1 ; EGFP-g1 target (ssRNA ; dsDNA)
RNA: GGCUAUAAAAGCCAUAUAAUUUCUACUAUUGUAGAUCGUCGCCGUCCAGCUCGACCAGG
DNA 1: TTTACGTCGCCGTCCAGCTCGACCAGG
DNA 2: CCTGGTCGAGCTGGACGGCGACGTAAA
- activity (ZXPB Type V-A Cas): > 20 % EGFP KO

B2: ZJHK crRNA EGFP-g1 ; EGFP-g1 target (ssRNA ; dsDNA)
RNA: CUUUGAAAGAAUAUAAUUUCUACUGAAAGUGUAGAUCGUCGCCGUCCAGCUCGACCAGG
DNA 1: TTTACGTCGCCGTCCAGCTCGACCAGG
DNA 2: CCTGGTCGAGCTGGACGGCGACGTAAA
- activity (ZJHK Type V-A Cas): > 20 % EGFP KO

B3: ZZGY crRNA EGFP-g1 ; EGFP-g1 target (ssRNA ; dsDNA)
RNA: UCUAAAGCUCUUUAAGAAUUUCUACUUUCGUAGAUCGUCGCCGUCCAGCUCGACCAGG
DNA 1: TTTACGTCGCCGTCCAGCTCGACCAGG
DNA 2: CCTGGTCGAGCTGGACGGCGACGTAAA
- activity (ZZGY Type V-A Cas): > 20 % EGFP KO
